From patent US20160159919A1 (Chugai, published 2016)

What follows are binders tested against T1, soluble human EREG fragment having a mature EGF domain structure (R&D Systems cat. no. 1195-EP/CF) (human, UniProt O14944 63-108) (assay: competitive ELISA on coated soluble human EREG fragment).
T1 construct: bought; coated on ELISA plates; also called human epiregulin; recombinant human Epiregulin
Protocol: The soluble human EREG fragment having a mature EGF domain structure (the polypeptide of SEQ ID NO: 34 which corresponds to ⁶³Val to ¹⁰⁸Leu) was purchased from R&D Systems (cat. no. 1195-EP/CF). The soluble human EREG fragment was used to coat nunc immunoplates, and after blocking with a BSA-containing solution, the competitive binding reactivity between mouse hybridoma-derived EP27 and the purified humanized anti-EREG antibody was analyzed. Mouse hybridoma-derived EP27 and a purified humanized anti-EREG antibody were added to the plates, and after two hours of incubation, the plates were washed; and an alkaline phosphatase-labeled anti-human IgG antibody (Zymed) was added to each well of the plates and then allowed to react. Each well was washed, and then the amount of bound antibody (A405/655 detection value) was determined by addition of a test reagent, Sigma p-Nitrophenyl phosphate Tablets.

T1 sequence (O14944 63-108 limits assumed): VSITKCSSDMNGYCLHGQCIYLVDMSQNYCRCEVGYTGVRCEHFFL

Binder | binding result
H3-G1d/LB-k (antibody, human IgG1, kappa, V domains shown) VH: QDQLVQSGAEVKKPGASVKVSCKASGFNIKDTYIQWVRQAPGQGLEWMGRIDPLNGNTKYVDKFQGRVTITADTSTNTAYMELSSLRSEDTAVYYCVRSGTLFDFWGQGTLVTVSS VL: DIQMTQSPSSLSASVGDRVTITCKASQDIHKYIAWYQQKPGQAPRLLIQYTSTLQPGVPSRFSGSGSGTDYTFTISSLQPEDIATYYCLQYDNLRTFGGGTKVEIKR | binds
H25-G1d/LB-k (antibody, human IgG1, kappa, V domains shown) VH: QDQLVQSGAEVKKPGASVKVSCKASGFNIKDTYIQWVRQAPGQGLEWMGRIDPLNGNTKYVPKFQGRVTITADTSTNTAYMELSSLRSEDTAVYYCVRSGTSFDFWGQGTLVTVSS VL: DIQMTQSPSSLSASVGDRVTITCKASQDIHKYIAWYQQKPGQAPRLLIQYTSTLQPGVPSRFSGSGSGTDYTFTISSLQPEDIATYYCLQYDNLRTFGGGTKVEIKR | binds
H5-G1d/LB-k (antibody, human IgG1, kappa, V domains shown) VH: QDQLVQSGAEVKKPGASVKVSCKASGFNIKDTYIQWVRQAPGQGLEWMGRIDPLNGNTKYVPSFQGRVTITADTSTNTAYMELSSLRSEDTAVYYCVRSGTLFDFWGQGTLVTVSS VL: DIQMTQSPSSLSASVGDRVTITCKASQDIHKYIAWYQQKPGQAPRLLIQYTSTLQPGVPSRFSGSGSGTDYTFTISSLQPEDIATYYCLQYDNLRTFGGGTKVEIKR | binds
H8-G1d/LB-k (antibody, human IgG1, kappa, V domains shown) VH: QDQLVQSGAEVKKPGASVKVSCKASGFNIKDTYIQWVRQAPGQGLEWMGRIDPLNGNTKYVPKFEGRVTITADTSTNTAYMELSSLRSEDTAVYYCVRSGTLFDFWGQGTLVTVSS VL: DIQMTQSPSSLSASVGDRVTITCKASQDIHKYIAWYQQKPGQAPRLLIQYTSTLQPGVPSRFSGSGSGTDYTFTISSLQPEDIATYYCLQYDNLRTFGGGTKVEIKR | binds
H10-G1d/LB-k (antibody, human IgG1, kappa, V domains shown) VH: QDQLVQSGAEVKKPGASVKVSCKASGFNIKDTYIQWVRQAPGQGLEWMGRIDPLNGNTKYVPKFQERVTITADTSTNTAYMELSSLRSEDTAVYYCVRSGTLFDFWGQGTLVTVSS VL: DIQMTQSPSSLSASVGDRVTITCKASQDIHKYIAWYQQKPGQAPRLLIQYTSTLQPGVPSRFSGSGSGTDYTFTISSLQPEDIATYYCLQYDNLRTFGGGTKVEIKR | binds
H9-G1d/LB-k (antibody, human IgG1, kappa, V domains shown) VH: QDQLVQSGAEVKKPGASVKVSCKASGFNIKDTYIQWVRQAPGQGLEWMGRIDPLNGNTKYVPKFQDRVTITADTSTNTAYMELSSLRSEDTAVYYCVRSGTLFDFWGQGTLVTVSS VL: DIQMTQSPSSLSASVGDRVTITCKASQDIHKYIAWYQQKPGQAPRLLIQYTSTLQPGVPSRFSGSGSGTDYTFTISSLQPEDIATYYCLQYDNLRTFGGGTKVEIKR | binds

Continued, values first:

binding result | Binder
binds | H6-G1d/LB-k (antibody, human IgG1, kappa, V domains shown) VH: QDQLVQSGAEVKKPGASVKVSCKASGFNIKDTYIQWVRQAPGQGLEWMGRIDPLNGNTKYVPQFQGRVTITADTSTNTAYMELSSLRSEDTAVYYCVRSGTLFDFWGQGTLVTVSS VL: DIQMTQSPSSLSASVGDRVTITCKASQDIHKYIAWYQQKPGQAPRLLIQYTSTLQPGVPSRFSGSGSGTDYTFTISSLQPEDIATYYCLQYDNLRTFGGGTKVEIKR
binds | H23-G1d/LB-k (antibody, human IgG1, kappa, V domains shown, also called H23-G1/LB-k) VH: QDQLVQSGAEVKKPGASVKVSCKASGFNIKDTYIQWVRQAPGQGLEWMGRIDPLNGSTKYVPKFQGRVTITADTSTNTAYMELSSLRSEDTAVYYCVRSGTLFDFWGQGTLVTVSS VL: DIQMTQSPSSLSASVGDRVTITCKASQDIHKYIAWYQQKPGQAPRLLIQYTSTLQPGVPSRFSGSGSGTDYTFTISSLQPEDIATYYCLQYDNLRTFGGGTKVEIKR
binds | H7-G1d/LB-k (antibody, human IgG1, kappa, V domains shown) VH: QDQLVQSGAEVKKPGASVKVSCKASGFNIKDTYIQWVRQAPGQGLEWMGRIDPLNGNTKYVPKFDGRVTITADTSTNTAYMELSSLRSEDTAVYYCVRSGTLFDFWGQGTLVTVSS VL: DIQMTQSPSSLSASVGDRVTITCKASQDIHKYIAWYQQKPGQAPRLLIQYTSTLQPGVPSRFSGSGSGTDYTFTISSLQPEDIATYYCLQYDNLRTFGGGTKVEIKR
